According to publication PMC9845307, “Arabidopsis LSH10 transcription factor and OTLD1 histone deubiquitinase interact and transcriptionally regulate the same target genes”:

T1: GST-LSH10 (Arabidopsis, UniProt Q9S7R3 1-177)
T1 sequence: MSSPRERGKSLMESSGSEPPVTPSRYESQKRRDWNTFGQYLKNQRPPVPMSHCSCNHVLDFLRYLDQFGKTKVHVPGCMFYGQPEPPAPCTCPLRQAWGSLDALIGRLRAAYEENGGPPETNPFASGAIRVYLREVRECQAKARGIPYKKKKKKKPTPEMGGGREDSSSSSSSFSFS


Tests used:
GST-LSH10 = biological target: T1, GST-LSH10; experiment: EMSA; poly dI.dC; reduced by 300x unlabeled probe; 100 mM Tris, 500 mM KCl, 10 mM DTT, pH 7.5 (as printed binding buffer), 1 ug dI.dC, 10 ng probe, 1 ug protein, room temperature 20 min, 6% native PAGE; conditions: protein: recombinant, tags: N-terminal GST (pGEX-5X-1), label: biotin (labeled probe)
OTLD1-RFP (Arabidopsis) = experiment: FRET or BRET; acceptor photobleaching FRET (AB-FRET): GFP donor, RFP acceptor, transiently co-expressed in N. benthamiana leaves; %AB-FRET = percent increase in GFP emission after RFP photobleaching, cell nucleus, n = 13 cells
OTLD1-RFP (Arabidopsis), sequence (F4IFS7 whole entry): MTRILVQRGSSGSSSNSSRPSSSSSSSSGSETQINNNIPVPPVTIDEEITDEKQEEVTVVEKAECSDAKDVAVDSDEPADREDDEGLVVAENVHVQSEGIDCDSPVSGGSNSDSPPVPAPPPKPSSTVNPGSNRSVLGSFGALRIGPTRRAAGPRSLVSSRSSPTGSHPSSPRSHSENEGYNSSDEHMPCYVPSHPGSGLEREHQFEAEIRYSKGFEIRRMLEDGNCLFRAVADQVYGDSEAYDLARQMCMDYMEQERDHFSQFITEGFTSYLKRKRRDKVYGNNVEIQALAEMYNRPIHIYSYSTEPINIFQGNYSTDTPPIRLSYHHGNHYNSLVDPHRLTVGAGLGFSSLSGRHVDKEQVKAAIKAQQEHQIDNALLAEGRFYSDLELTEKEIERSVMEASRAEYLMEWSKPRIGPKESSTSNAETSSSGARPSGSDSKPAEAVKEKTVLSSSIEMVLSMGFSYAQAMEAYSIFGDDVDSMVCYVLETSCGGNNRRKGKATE

Row | Binder | binding result (GST-LSH10) | also measured
1 | probe c (WUS) (dsDNA) DNA 1: TTTTAGAATTTTTGTTTTGTTTTCTGTGTGTATG DNA 2: CATACACACAGAAAACAAAACAAAAATTCTAAAA | binds | 
2 | probe f (ABI5) (dsDNA) DNA 1: GCTTTTAAACTATGTGAAGGAGGAGAACCTCCATAACAA DNA 2: TTGTTATGGAGGTTCTCCTCCTTCACATAGTTTAAAAGC | binds | 
3 | probe g (ABI5) (dsDNA) DNA 1: ACAAGAAGCGGATTCTCTCAGTTTTCCGGCGGCGGAGGAACA DNA 2: TGTTCCTCCGCCGCCGGAAAACTGAGAGAATCCGCTTCTTGT | binds | 
4 | probe b (OSR2) (dsDNA) DNA 1: CTGTAACGTCTTTCTCTTCACACACATAAAAAAG DNA 2: CTTTTTTATGTGTGTGAGAGAGAAAGACGTTACAG |  | binding result (GST-LSH10; internal mismatch/bulge as printed): binds
5 | LSH10-GFP (natural protein) MSSPRERGKSLMESSGSEPPVTPSRYESQKRRDWNTFGQYLKNQRPPVPMSHCSCNHVLDFLRYLDQFGKTKVHVPGCMFYGQPEPPAPCTCPLRQAWGSLDALIGRLRAAYEENGGPPETNPFASGAIRVYLREVRECQAKARGIPYKKKKKKKPTPEMGGGREDSSSSSSSFSFS |  | %AB-FRET (increase in the donor fluorescence) (OTLD1-RFP (Arabidopsis)): 13%
6 | probe a (OSR2) (dsDNA) DNA 1: TAATATAAATTGCGTTTTGTTTTCCAGATATCAA DNA 2: TTGATATCTGGAAAACAAAACGCAATTTATATTA | binds | 
7 | probe d (WUS) (dsDNA) DNA 1: TATATATATATAATCTTCTCTCTCACACAAAACCTAAAA DNA 2: TTTTAGGTTTTGTGTGAGAGAGAAGATTATATATATATA | binds | 
8 | probe h (ARL) (dsDNA) DNA 1: TCAGAGAAAGTGTCTAGGGGAGAAGAACCACTGTGATTG DNA 2: CAATCACAGTGGTTCTTCTCCCCTAGACACTTTCTCTGA | binds | 
9 | probe e (WUS) (dsDNA) DNA 1: ATTTACCGTTAACTTTGTGAACAAAAGTCGAATCAAACACAC DNA 2: GTGTGTTTGATTCGACTTTTGTTCACAAAGTTAACGGTAAAT | binds | 
